Measured values as given in patent USRE38202.

Tests used:
[1] = target: intact human Factor IX (human) (UniProt P00740); assay: cell-based or functional assay
Factor IXα (human) = Factor IXα (human) (UniProt P00740); assay: ELISA affinity determination (Kim et al.)
[2] = target: intact human Factor IX (human) (UniProt P00740); assay: ELISA affinity determination (Kim et al.)
Factor II [3] = target: Factor II (UniProt P00734); assay: affinity chromatography on CLB-FIX D4-Sepharose; 73 ml
Factor X [4] = target: Factor X (UniProt P00742); assay: as above
Factor II [5] = target: Factor II (UniProt P00734); assay: affinity chromatography on CLB-FIX D4-Sepharose; 440 ml
Factor X [6] = target: Factor X (UniProt P00742); assay: as above
Factor IXaβ (human) [7] = target: Factor IXaβ (human) (UniProt P00740); assay: CLB-FIX D4 affinity chromatography, Factor IXα mixture applied
[8] = target: intact human Factor IX (human) (UniProt P00740); assay: as above
[9] = target: intact human Factor IX (human) (UniProt P00740); assay: CLB-FIX D4 affinity chromatography, purified Factor IX applied
Factor IXaβ (human) [10] = target: Factor IXaβ (human) (UniProt P00740); assay: CLB-FIX D4 affinity chromatography, Factor IXaβ mixture applied
[11] = target: intact human Factor IX (human) (UniProt P00740); assay: as above
[12] = target: intact human Factor IX (human) (UniProt P00740); assay: affinity chromatography on CLB-FIX D4-Sepharose, clotting activity; 73 ml
[13] = target: intact human Factor IX (human) (UniProt P00740); assay: affinity chromatography on CLB-FIX D4-Sepharose, clotting activity; 440 ml
[14] = target: intact human Factor IX (human) (UniProt P00740); assay: affinity chromatography of prothrombin complex concentrate, elution with 2 M KSCN

Chain of UniProt P00742 (P00742 41-488 limits assumed): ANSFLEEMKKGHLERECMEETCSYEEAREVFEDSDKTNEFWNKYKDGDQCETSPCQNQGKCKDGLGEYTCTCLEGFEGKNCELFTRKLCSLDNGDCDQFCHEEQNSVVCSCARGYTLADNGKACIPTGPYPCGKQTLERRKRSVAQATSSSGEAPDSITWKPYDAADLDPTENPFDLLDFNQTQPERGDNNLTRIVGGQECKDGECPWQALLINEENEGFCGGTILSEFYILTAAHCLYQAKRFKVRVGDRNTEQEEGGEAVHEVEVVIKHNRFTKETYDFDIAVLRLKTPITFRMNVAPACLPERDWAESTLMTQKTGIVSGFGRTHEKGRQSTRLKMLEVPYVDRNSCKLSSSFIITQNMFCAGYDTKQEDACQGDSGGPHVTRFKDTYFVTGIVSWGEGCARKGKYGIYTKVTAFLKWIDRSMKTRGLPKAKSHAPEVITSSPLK

Factor IX clotting activity (one stage coagulation assay), residual activity after incubation with antibody [1]: > 90%
Kd (Factor IXα (human)): 0.3 nM
fold alteration of affinity (Factor IXα against intact Factor IX) (Factor IXα (human)): > 4 fold
Kd [2]: 1.2 nM
FII in eluate (U/ml) (Factor II [3]): < 0.008 U/ml
FX in eluate (U/ml) (Factor X [4]): < 0.003 U/ml
FII in flow through (U/ml) (Factor II [5]): 49.7 U/ml
FX in flow through (U/ml) (Factor X [6]): 51 U/ml
FIXaβ eluted (Factor IXaβ (human) [7]): < 0.001 µg
FIXaβ unbound (Factor IXaβ (human) [7]): 7 µg
Intact FIX eluted [8]: 85 µg
Intact FIX eluted [9]: 588 µg
Intact FIX unbound [9]: 23 µg
Protein eluted [9]: 580 µg
Protein unbound [9]: 20 µg
FIXaβ eluted (Factor IXaβ (human) [10]): < 0.001 µg
FIXaβ unbound (Factor IXaβ (human) [10]): 550 µg
Intact FIX eluted [11]: 50 µg
FIX in eluate (U/ml) [12]: 98.7 U/ml
FIX in flow through (U/ml) [13]: 10.4 U/ml
Factor IX activity recovered in the eluate [14]: 67%
Substance: monoclonal antibody CLB-FIX D4
